Literature values, collected in article PMC11348067.
pKd: −log10 of the molar value.

Target: Mucin 1 (human) (UniProt P15941)
Test: not stated (cited)
Conditions: aptamer/padlock annealed in water with 80 mM NaCl (2 uL of 800 mM in 20 uL), then 40 uL protein added, 30 min; pH and binding temperature not stated; ligation …

Mucin 1 (human), sequence (P15941 24-1158): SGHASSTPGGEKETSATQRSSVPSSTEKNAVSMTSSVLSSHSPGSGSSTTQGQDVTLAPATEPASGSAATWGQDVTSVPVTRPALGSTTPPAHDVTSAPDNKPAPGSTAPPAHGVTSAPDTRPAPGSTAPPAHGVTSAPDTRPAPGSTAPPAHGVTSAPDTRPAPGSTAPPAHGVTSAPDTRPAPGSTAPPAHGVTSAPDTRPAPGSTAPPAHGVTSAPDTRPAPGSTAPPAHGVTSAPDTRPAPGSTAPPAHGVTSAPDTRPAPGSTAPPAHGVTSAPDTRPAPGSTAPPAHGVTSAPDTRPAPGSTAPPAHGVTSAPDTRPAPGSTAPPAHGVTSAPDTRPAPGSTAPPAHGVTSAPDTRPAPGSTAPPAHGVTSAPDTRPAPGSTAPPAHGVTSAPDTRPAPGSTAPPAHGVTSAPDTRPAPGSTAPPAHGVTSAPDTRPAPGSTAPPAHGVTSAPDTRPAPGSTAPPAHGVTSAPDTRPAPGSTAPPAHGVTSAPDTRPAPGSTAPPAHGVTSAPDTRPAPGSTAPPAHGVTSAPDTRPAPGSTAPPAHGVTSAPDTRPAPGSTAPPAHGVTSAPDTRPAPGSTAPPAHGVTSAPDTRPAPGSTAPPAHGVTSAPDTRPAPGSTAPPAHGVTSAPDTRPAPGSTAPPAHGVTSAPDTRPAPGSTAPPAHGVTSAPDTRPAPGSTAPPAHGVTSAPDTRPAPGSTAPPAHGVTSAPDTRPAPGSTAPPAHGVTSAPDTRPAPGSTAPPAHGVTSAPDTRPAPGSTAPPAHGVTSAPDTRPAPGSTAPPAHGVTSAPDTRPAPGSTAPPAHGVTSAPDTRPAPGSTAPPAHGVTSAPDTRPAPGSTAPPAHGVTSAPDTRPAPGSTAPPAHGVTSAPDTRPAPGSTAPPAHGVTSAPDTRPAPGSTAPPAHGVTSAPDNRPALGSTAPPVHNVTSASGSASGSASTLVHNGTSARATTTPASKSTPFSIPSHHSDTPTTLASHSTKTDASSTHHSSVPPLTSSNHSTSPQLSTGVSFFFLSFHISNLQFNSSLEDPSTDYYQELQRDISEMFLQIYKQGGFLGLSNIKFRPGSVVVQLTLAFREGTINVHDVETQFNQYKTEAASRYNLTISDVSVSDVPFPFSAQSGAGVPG

## GCAGTTGATCCTTTGGATACCCTGGAGTGA [Mucin 1 aptamer]
  pKd: 9.87
